Results from article PMC2806925, “Crystal Structure of the S. solfataricus Archaeal Exosome Reveals Conformational Flexibility in the RNA-Binding Ring” (PLoS ONE, 2010).

Molecular target: the molecule itself
Assay: crystal structure; Rrp4-exosome isoform (Rrp4, Rrp41, Rrp42 co-expressed and co-purified); 2.9 Å, space group C2; 30% PEG4000, 100 mM Tris-HCl pH 8.6, 200 mM Mg(Ac)2; refined without three-fold NCS

B1: Sulfolobus solfataricus exosome subunit Rrp4 as in the crystallised Rrp4-exosome isoform (natural protein)
chain: MNMSQSQKIVLQPRSIVVPGELLAEGEFQIPWSPYILKINSKYYSTVVGLFDVKDTQFEVIPLEGSFYYPKINDIVIGLVEDVEIYGWVVDIKAPYKAYLPASNLLGRSINVGEDLRRYLDVGDYVIARIENFDRSIDPVLSVKGKDLGRVSNGIVIDIMPVKVPRVIGKNKSMYETLTSKSGCSIFVANNGRIWATCPSRFSEEILIEAIRKIENESHIKGLTDRIKQFIEEKLGERNASSGETKTNS
notes: domains as printed: N-ter aa 1-50, S1 aa 56-126, KH aa 135-250; The purification of the Rrp4-exosome isoform is not described on its own; In the four-subunit preparation the His6-tag was removed with TEV protease, so the tag was probably cleaved here too; also called Chains C, F and I
- stoichiometry N: 3
